Test results from the RNAGym collection of RNA variant scans (doi:10.1093/molbev/msab373).

B1: Azoarcus group I ribozyme (parent)
chain: GUGCCUUGCGCCGGGAAACCACGCAAGGGAUGGUGUCAAAUUCGGCGAAACCUAAGCGCCCGCCCGGGCGUAUGGCAACGCCGAGCCAAGCUUCGGCGCCUGCGCCGAUGAAGGUGUAGAGACUAGACGGCACCCACCUAAGGCAAACGCUAUGGUGAAGGCAUAGUCCAGGGAGUGGCGAAAGUCACACAAACCGG

Variants of: B1
Experiment: reverse-splicing fitness (ratio to wild type); higher = more active; in vitro selection; Mg2+ level not given
Method in brief: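 An in vitro group I ribozyme library with randomized positions was T7-transcribed and gel-purified. In triplicate, 10 pmol RNA in EPPS pH 7.5 was reacted with 50 pmoles of a 30-nt RNA substrate for 1 h at 37 °C across several added MgCl2 levels (1–48 mM), then stopped with EDTA. Products were reverse transcribed from a substrate-complementary primer, PCR-amplified and sequenced (HiSeq 4000). Fitness is a variant's read proportion after selection over that before, normalised to wild type.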

**Q.** Which reverse-splicing fitness does the source give for C82A A111U A145G C150A C169A here?
**A.** 0.0117

**Q.** For C82A A111U A145G C150A C169G, which reverse-splicing fitness is on record?
**A.** 0.00916

**Q.** For C82A A111U A145G C150A C169U, which reverse-splicing fitness is on record?
**A.** 0.0111

**Q.** For C82A A111U A120U A145U C169A U176C, which reverse-splicing fitness is on record?
**A.** 0.00197

**Q.** For C82A A111U A120U A145U C169A U176G, which reverse-splicing fitness is on record?
**A.** 0.00222

**Q.** With C82A A111U A120U A145U C169A U176A as the variant, how does the reverse-splicing fitness read?
**A.** 0.00283

**Q.** Which reverse-splicing fitness does the source give for C82A A111U A120U A145G C150A C169A here?
**A.** 0.00807

**Q.** Which reverse-splicing fitness does the source give for C82A A111U A120U A145G C150A C169G here?
**A.** 0.00618

**Q.** For C82A A111U A120U A145G C150A C169U, which reverse-splicing fitness is on record?
**A.** 0.00475

**Q.** Which reverse-splicing fitness does the source give for C82A A111U A120U C169U U176G here?
**A.** 0.00228

**Q.** For C82A A111U A120U C169U U176C, which reverse-splicing fitness is on record?
**A.** 0.00461

**Q.** For C82A A111U A120U C169U U176A, which reverse-splicing fitness is on record?
**A.** 0.00519

**Q.** For C82A A111U A145C C169A U176A, which reverse-splicing fitness is on record?
**A.** 0.0109

**Q.** With C82A A111U A145C C169A U176G as the variant, how does the reverse-splicing fitness read?
**A.** 0.00702

**Q.** Which reverse-splicing fitness does the source give for C82A A111U A145C C169A U176C here?
**A.** 0.00816

**Q.** For C82A A111U A120U A145G C150G U176G, which reverse-splicing fitness is on record?
**A.** 0.00434

**Q.** With C82A A111U A120U A145G C150G U176A as the variant, how does the reverse-splicing fitness read?
**A.** 0.00697

**Q.** Which reverse-splicing fitness does the source give for C82A A111U A120U A145G C150G U176C here?
**A.** 0.00894

**Q.** Which reverse-splicing fitness does the source give for C82A A111U A120U A145U C150G U176C here?
**A.** 0.00545

**Q.** Which reverse-splicing fitness does the source give for C82A A111U A120U A145U C150G U176A here?
**A.** 0.00344

**Q.** For C82A A111U A120U A145U C150G U176G, which reverse-splicing fitness is on record?
**A.** 0.00272

**Q.** Which reverse-splicing fitness does the source give for C82A A111U A120U A145C C150A C169A here?
**A.** 0.00277

**Q.** With C82A A111U A120U A145C C150A C169G as the variant, how does the reverse-splicing fitness read?
**A.** 0.00256

**Q.** With C82A A111U A120U A145C C150A C169U as the variant, how does the reverse-splicing fitness read?
**A.** 0.00267

**Q.** Which reverse-splicing fitness does the source give for C82A A111U A120U A145U C150U C169U U176C here?
**A.** 0.00339

**Q.** Which reverse-splicing fitness does the source give for C82A A111U A120U A145U C150U C169U U176G here?
**A.** 0.00299

**Q.** Which reverse-splicing fitness does the source give for C82A A111U A120U A145U C150U C169U U176A here?
**A.** 0.00333

**Q.** For C82A A111U A120U A145G C150A, which reverse-splicing fitness is on record?
**A.** 0.00899

**Q.** For C82A A111U A120U A145G C150G, which reverse-splicing fitness is on record?
**A.** 0.00842

**Q.** With C82A A111U A120U A145G C150U as the variant, how does the reverse-splicing fitness read?
**A.** 0.0195

**Q.** Which reverse-splicing fitness does the source give for C82A A111U A120U A145G C150G C169G U176G here?
**A.** 0.00413

**Q.** Which reverse-splicing fitness does the source give for C82A A111U A120U A145G C150G C169G U176C here?
**A.** 0.00639

**Q.** For C82A A111U A120U A145G C150G C169G U176A, which reverse-splicing fitness is on record?
**A.** 0.00885

**Q.** With C82A A111U A120U A145C C169U as the variant, how does the reverse-splicing fitness read?
**A.** 0.00338

**Q.** Which reverse-splicing fitness does the source give for C82A A111U A120U A145C C169A here?
**A.** 0.00224

**Q.** With C82A A111U A120U A145C C169G as the variant, how does the reverse-splicing fitness read?
**A.** 0.00342

**Q.** For C82A A111U A145C C150A C169A, which reverse-splicing fitness is on record?
**A.** 0.00947

**Q.** Which reverse-splicing fitness does the source give for C82A A111U A145C C150A C169U here?
**A.** 0.011

**Q.** For C82A A111U A145C C150A C169G, which reverse-splicing fitness is on record?
**A.** 0.00849

**Q.** Which reverse-splicing fitness does the source give for C82A A111U A120U A145U C169U U176A here?
**A.** 0.00289

**Q.** For C82A A111U A120U A145U C169U U176C, which reverse-splicing fitness is on record?
**A.** 0.00325

**Q.** With C82A A111U A120U A145U C169U U176G as the variant, how does the reverse-splicing fitness read?
**A.** 0.00208

**Q.** Which reverse-splicing fitness does the source give for C82A A111U A120U A145G C150U C169U U176C here?
**A.** 0.00506

**Q.** Which reverse-splicing fitness does the source give for C82A A111U A120U A145G C150U C169U U176A here?
**A.** 0.00537

**Q.** Which reverse-splicing fitness does the source give for C82A A111U A120U A145G C150U C169U U176G here?
**A.** 0.00286

**Q.** Which reverse-splicing fitness does the source give for C82A A111U A120U A145G C169G here?
**A.** 0.00467

**Q.** With C82A A111U A120U A145G C169A as the variant, how does the reverse-splicing fitness read?
**A.** 0.0037

**Q.** For C82A A111U A120U A145G C169U, which reverse-splicing fitness is on record?
**A.** 0.00488

**Q.** For C82A A111U A120U C150A C169U, which reverse-splicing fitness is on record?
**A.** 0.00495

**Q.** With C82A A111U A120U C150A C169A as the variant, how does the reverse-splicing fitness read?
**A.** 0.00615

**Q.** With C82A A111U A120U C150A C169G as the variant, how does the reverse-splicing fitness read?
**A.** 0.00511

**Q.** With C82A A111U A145C C150A C169U U176A as the variant, how does the reverse-splicing fitness read?
**A.** 0.0155

**Q.** Which reverse-splicing fitness does the source give for C82A A111U A145C C150A C169U U176C here?
**A.** 0.0116

**Q.** Which reverse-splicing fitness does the source give for C82A A111U A145C C150A C169U U176G here?
**A.** 0.00705

**Q.** Which reverse-splicing fitness does the source give for C82A A111U A120U A145C C150G C169G here?
**A.** 0.0039

**Q.** For C82A A111U A120U A145C C150G C169U, which reverse-splicing fitness is on record?
**A.** 0.00392

**Q.** For C82A A111U A120U A145C C150G C169A, which reverse-splicing fitness is on record?
**A.** 0.00347

**Q.** With C82A A111U A120U A145C C150A C169U U176C as the variant, how does the reverse-splicing fitness read?
**A.** 0.00287

**Q.** With C82A A111U A120U A145C C150A C169U U176A as the variant, how does the reverse-splicing fitness read?
**A.** 0.00277

**Q.** Which reverse-splicing fitness does the source give for C82A A111U A120U A145C C150A C169U U176G here?
**A.** 0.00186

**Q.** Which reverse-splicing fitness does the source give for C82A A111U A120U A145C U176C here?
**A.** 0.00758

**Q.** For C82A A111U A120U A145C U176A, which reverse-splicing fitness is on record?
**A.** 0.00613

**Q.** Which reverse-splicing fitness does the source give for C82A A111U A120U A145C U176G here?
**A.** 0.00274

**Q.** For C82A A111U A145C U176C, which reverse-splicing fitness is on record?
**A.** 0.126

**Q.** For C82A A111U A145C U176A, which reverse-splicing fitness is on record?
**A.** 0.0948

**Q.** With C82A A111U A145C U176G as the variant, how does the reverse-splicing fitness read?
**A.** 0.0253

**Q.** Which reverse-splicing fitness does the source give for C82A A111U A120U A145U C150G C169U U176G here?
**A.** 0.0027

**Q.** For C82A A111U A120U A145U C150G C169U U176A, which reverse-splicing fitness is on record?
**A.** 0.00308

**Q.** Which reverse-splicing fitness does the source give for C82A A111U A120U A145U C150G C169U U176C here?
**A.** 0.00313

**Q.** With C82A A111U A120U A145G C150U C169G U176C as the variant, how does the reverse-splicing fitness read?
**A.** 0.00667

**Q.** Which reverse-splicing fitness does the source give for C82A A111U A120U A145G C150U C169G U176A here?
**A.** 0.00984

**Q.** Which reverse-splicing fitness does the source give for C82A A111U A120U A145G C150U C169G U176G here?
**A.** 0.00271

**Q.** For C82A A111U A120U A145C C150A C169G U176C, which reverse-splicing fitness is on record?
**A.** 0.00303

**Q.** For C82A A111U A120U A145C C150A C169G U176G, which reverse-splicing fitness is on record?
**A.** 0.0026

**Q.** With C82A A111U A120U A145C C150A C169G U176A as the variant, how does the reverse-splicing fitness read?
**A.** 0.00303

**Q.** For C82A A111U A120U A145G U176G, which reverse-splicing fitness is on record?
**A.** 0.00319

**Q.** Which reverse-splicing fitness does the source give for C82A A111U A120U A145G U176C here?
**A.** 0.0114

**Q.** With C82A A111U A120U A145G U176A as the variant, how does the reverse-splicing fitness read?
**A.** 0.00766

**Q.** With C82A A111U A120U A145C C169G U176C as the variant, how does the reverse-splicing fitness read?
**A.** 0.00232

**Q.** For C82A A111U A120U A145C C169G U176G, which reverse-splicing fitness is on record?
**A.** 0.00198

**Q.** For C82A A111U A120U A145C C169G U176A, which reverse-splicing fitness is on record?
**A.** 0.00281

**Q.** With C82A A111U A145C C150A C169G U176G as the variant, how does the reverse-splicing fitness read?
**A.** 0.00831

**Q.** For C82A A111U A145C C150A C169G U176A, which reverse-splicing fitness is on record?
**A.** 0.029
